# Laboratory results taken from patent publication US20130273053.
# Target: ST-pro-factor D-His (UniProt P00746)
# Sequence (P00746 21-253): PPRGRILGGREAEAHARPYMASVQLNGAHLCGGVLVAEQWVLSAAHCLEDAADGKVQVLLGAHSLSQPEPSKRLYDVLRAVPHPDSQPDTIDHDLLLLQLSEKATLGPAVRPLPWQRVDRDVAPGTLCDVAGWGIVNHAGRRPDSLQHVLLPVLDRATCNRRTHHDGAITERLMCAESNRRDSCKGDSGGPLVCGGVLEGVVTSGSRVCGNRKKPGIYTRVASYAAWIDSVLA
protein,measurement,value
"recombinant MASP-1 (CCP1-CCP2-SP) fragment (enzyme, part only; not given: tags; R504Q status unclear) chain, part: GNECPELQPPVHGKIEPSQAKYFFKDQVLVSCDTGYKVLKDNVEMDTFQIECLKDGTWSNKIPTCKIVDCRAPGELEHGLITFSTRNNLTTYKSEIKYSCQEPYYKMLNNNTGIYTCSAQGVWMNKVLGRSLPTCLPVCGLPKFSRKLMARIFNGRPAQKGTTPWIAMLSHLNGQPFCGGSLLGSSWIVTAAHCLHQSLDPKDPTLRDSDLLSPSDFKIILGKHWRLRSDENEQHLGVKHTTLHPKYDPNTFENDVALVELLESPVLNAFVMPICLPEGPQQEGAMVIVSGWGKQFLQRFPETLMEIEIPIVDHSTCQKAYAPLKKKVTRDMICAGEKEGGKDACSGDSGGPMVTLNRERGQWYLVGTVSWGDDCGKKDRYGVYSYIHHNKDWIQRVTGVRN","cleavage of pro-factor D substrate, Western blot",only full length MASP-3 (lane 2) and the MASP-1 CCP1-CCP2-SP) fragment (lane 5) cleaved ST-pro-factor D-His6
